For one molecule, decatenation of kDNA by DNA gyrase (4 nM) with increasing concentrations of PprA; ratio of minicircles released with PprA over without PprA results are on record in article PMC4863600.

The assay concerns the target D. radiodurans DNA gyrase holoenzyme (reconstituted from GyrA::6His and 6His::GyrB) (D. radiodurans) (UniProt Q9RT53).

B1: PprA::6His protein (natural protein)
chain: MLPLAFLICSGHNKGSMARAKAKDQTDGIYAAFDTLMSTAGVDSQIAALAASEADAGTLDAALTQSLQEAQGRWGLGLHHLRHEARLTDDGDIEILTDGRPSARVSEGFGALAQAYAPMQALDERGLSQWAALGEGYRAPGDLPLAQLKVLIEHARDFETDWSAGRGETFQRVWRKGDTLFVEVARPASAEAALSDAAWDVIASIKDRAFQRELMRRSEKDGMLGALLGARHAGAKANLAQLPEAHFTVQAFVQTLSGAAARNAEEYRAALKTAAAALEEYQGVTTRQLSEVLRHGLRES
Regarding B1, the decatenation of kDNA by DNA gyrase (4 nM) with increasing concentrations of PprA; ratio of minicircles released with PprA over without PprA was 7 fold.
